Source: ChEMBL document CHEMBL2074163, “Identification of monocarboxylate transporter 8 as a specific thyroid hormone transporter” (J Biol Chem, 2003)

Tests used:
Format in all cases: functional, cell-based
Conditions in all cases: Oocyte
[1] = substrate: NC(Cc1ccc(Oc2cc(I)c(O)c(I)c2)c(I)c1)C(=O)O; assay: (§1) TP_TRANSPORTER: uptake in Xenopus laevis oocytes
[2] = substrate: N[C@@H](Cc1ccc(Oc2cc(I)c(O)c(I)c2)c(I)c1)C(=O)O; assay: as §1
[3] = substrate: N[C@@H](Cc1cc(I)c(Oc2cc(I)c(O)c(I)c2)c(I)c1)C(=O)O; assay: as §1

B1: Monocarboxylate transporter 8 (Rattus norvegicus), Q8K1P8 (protein)
chain: MALPSPASEEAEGPCQEANQEYQEPVCSPVPEPEPEPEPEPEPEPEPVPVPPPEPQPEPEPQPLPDPAPLPVLGFEAEPVQEPEPTPTVETRGTARGFQPPEGGFGWIVVFAATWCNGSIFGIHNSVGILYSMLLEEEKEKNRQVEFQAAWVGALAMGMIFFCSPIVSIFTDRLGCRITATTGAAVAFIGLHTSSFTSSLSLRYFTYGILFGCGCSFAFQPSLVILGHYFQRRLGLANGVVSAGSSIFSMSFPFLIKMLGDRIKLAQTFQVLSTFMFVLTLLSLTYRPLLPSSQDTPSKRGAHTLRQRFLVQFRKYFNMRVFRQRTYRIWAFGIAAAALGYFVPYVHLMKYVEDKFKEIKETWVLLVCIGATSGLGRLVSGHISDSIPGLKKIYLQVLSFLLLGLMSMMIPLCRDFGGLIVVCLFLGLCDGFFITIMAPIAFELVGPMQASQAIGYLLGMMALPMIAGPPIAGLLRNCFGNYHVAFYFAGVPPIIGAVILFFVPLMHQRMFKKEQRESSKDKMLSHDPDPNGELLPGSPTPEEPI
Km [1]: 2.2 µM
Km [2]: 4 µM
Km [3]: 4.7 µM
